{"source": "the Immune Epitope Database (IEDB)", "experiment_in_all_cases": "IEDB peptide-MHC binding, purified MHC/competitive/fluorescence; filed as Kd, often an IC50 or EC50 that approximates it; ≥ and ≤ were set here for values at or beyond the usual limits of such assays", "settings_in_all_cases": "source organism: human gammaherpesvirus 4", "key": {"HLA-B*27:20": {"target": "HLA-B*27:20"}, "HLA-B*15:42": {"target": "HLA-B*15:42"}, "HLA-B*40:13": {"target": "HLA-B*40:13"}, "HLA-B*45:06": {"target": "HLA-B*45:06"}, "HLA-B*83:01": {"target": "HLA-B*83:01"}}}
{"sequence": "AQRAAGPSV", "values": [{"measurement": "Kd", "setting": "HLA-B*27:20", "value": 0.7, "unit": "nM"}, {"measurement": "Kd", "setting": "HLA-B*15:42", "value": 1190, "unit": "nM"}, {"measurement": "Kd", "setting": "HLA-B*40:13", "value": 212, "unit": "nM"}, {"measurement": "Kd", "setting": "HLA-B*45:06", "value": 9.2, "unit": "nM"}, {"measurement": "Kd", "setting": "HLA-B*83:01", "value": "≥ 5000", "unit": "nM"}]}
